Several values for one entry are separate records, joined by “and”; a condition that tells them apart may be missing. Identical values can stand only once. Like-named read-outs stand apart in the source and are kept apart here.
How the values were obtained:
[1] = tested on: Meth A sarcoma; assay: Tumor cytotoxic activity (MTT); format: cell-based; settings: Meth A cells, 5 days, serial dilution from 50 ng/mL, FIG. 9
Experimental: Tumor cytotoxic activities of TCF, TCF-3 and TCF-13 were measured. Meth A sarcoma was used as a target cell line. The cells were suspended in RPMI medium (GIBCO Co.) supplemented with 10% FCS at a final cell density of 2×10^4 cells per mL. Fifty microliters of the cell suspension was inoculated into each well in 96-well flat-bottomed microtiter plates. The purified TCF, TCF-3 and TCF-13 were serially diluted with RPMI medium from the concentration of 50 ng/mL, and the 50 μL of each diluted sample was added to each test well. After incubation at 37° C. for 5 days, MTT was added at a final concentration of 0.5 mg/ml and the plates were incubated at 37° C. Four hours later, 100 μL of the solution containing 10% SDS and […] was added to each well and left overnight at room temperature. Next day, the absorbance at 620 nm was measured as a parameter of the viable cell numbers in each well.

[2] = rat
Experimental: Anti-TCF polyclonal antibody was dissolved in 0.1M NaHCO3 solution to a final concentration of 10 μg/mL. One hundred microliters of the antibody solution was added to each well and the plates were left overnight at room temperature. The wells were filled with 50% solution of Block Ace in H2 O, incubated for 1 hour at room temperature and washed three times with washing solution (PBS containing 0.1% Tween 20 ). Plasma samples periodically collected from the rats which were intravenously injected with TCF or the modified TCFs were diluted with normal rat serum, when necessary. TCF solutions serially diluted with normal rat serum (from 10 ng/mL) was used as the standard TCF solution. Fifty microliters of the sample solution and 50 μL of the first buffer (0.2M Tris HCl pH 7.3 containing 50% Block Ace, 0.2M NaCl, 0.1% Tween 20, 0.2% CHAPS, 20 mM Benzamidine hydrochloride, and 10 mM EDTA) was mixed and added to each well. The plates were left for 3 hours at 37° C. and washed three times with the washing buffer. One hundred microliters of the peroxidase-labeled anti-TCF antibody solution, which was 400-fold diluted with 0.1M phosphate buffer pH 7.0 containing 10% Block Ace, 0.15M NaCl, 0.1% Tween 20, 4% rat serum and 0.5% mouse IgG, was added to each well. Plates were incubated for hours at 37° C. and washed three times with the washing buffer. Subsequently, 100 μL of substrate solution (0.4 mg/mL of o-phenylene diamine dihydrochloride and 0.006% H2 O2 in 0.1M citrate-phosphate buffer, pH 4.5) was added to each well and incubated at 37° C. for 30 minutes in a dark place. The enzyme reaction was stopped by addition of 50 μL of 6N H2 SO4. The absorbance at 492 nm was measured on an immuno reader (Corona Co.). Thus concentrations of the TCF or the modified TCFs in rat serum were determined.
Time course of plasma levels were examined by EIA in rats after the single intravenous injection of TCF and the modified TCFs. Hale Wister rats weighing about 200 g were used.

[3] = background statement; cited from earlier work
[4] = tested on: tumor cells; settings: background statement; cited from earlier work
[5] = tested on: normal cells; settings: background statement; cited from earlier work
[6] = single i.v. injection, 50 μg/kg, two-compartment model, Mean ± SD, *P < 0.05, **P < 0.01 vs wild-type TCF

Substance | tumor cytotoxic activity (in words) [1] | bioavailabilities (in words) ([2]; in vivo) | AUC (in words) ([2]; in vivo, iv) | CLtotal (total clearance) ([2]; in vivo, iv) | metabolic fates (in words) ([2]; in vivo, iv) | plasma half-lives (in words) ([2]; in vivo, iv) | t1/2 α (plasma half-life of rapid phase) ([2]; in vivo, iv) | t1/2 β (plasma half-life of slower phase) ([2]; in vivo, iv) | total clearance (in words) ([2]; in vivo, iv) | t1/2 α (plasma half-life of rapid phase) [2, 6] | t1/2 β (plasma half-life of slower phase) [2, 6] | CLtotal (total clearance) ([2]; single i.v. injection, 50 μg/kg, Mean ± SD, **P < 0.01 vs wild-type TCF) | half-life [3] | cytotoxic activity against tumor cells (in words) [4] | growth stimulating activity for normal cells (in words) [5]
TCF-3: modified TCF which lacks oligosaccharide chain 3 (Ser at 563rd replaced with Ala) | cytotoxic activities to Meth A cells in a dose-dependent manner | larger bioavailabilities | larger AUC | 18.8 ± 2.1 mL/min/kg | slower metabolic fates | prolonged | 2.9 ± 0.3 min | 54.2 ± 8.3 min | decreased | – | – | – | – | – | –
TCF: tumor cytotoxic factor derived from human fibroblast; wild-type glycoprotein with four N-linked oligosaccharide chains | cytotoxic activities to Meth A cells in a dose-dependent manner | – | – | – | – | – | – | – | – | 2.4 ± 2.5 min and 2.4 ± 0.5 min | 15.6 ± 4.6 min | 51.5 ± 13.9 mL/min/kg | approximately 2 minutes | strong cytotoxic activity against tumor cells | growth stimulating activity for normal cells
